Experimental data from patent CN106749645A.

Target: HCV包膜糖蛋白
Test: cell-based or functional assay

B1: 全人源抗HCV中和抗体TRN1002 (antibody)
heavy: QVQLVQSGAEVKKPGSSVRVSCKASGGTLGSFAGSWVRQAPGQGLEWIGGIIPMFRRTNYAQKFQGRVTITADESTGTTYLELSSLRSDDTAIYFCAREIPGYCTGGRCFGYFDYWGQGTLVTVSS
light: EIVLTQSPGTLSLSPGESATLSCRASQHVNSNFLAWYQQKRGQTPRLLIYAASSRATGIPDRFSGSGSGTDFTLTISRLEPEDFAVYYCQQYGTSLTFGQGTKVEIK
- Luciferase活性 (荧光值), HCVpp感染Huh7细胞: 100 %
